Values of other authors as cited in paper PMC8262464.

Target: TLR2 (Homo sapiens) (UniProt O60603)
Assay: SPR

Chain of UniProt O60603 (O60603 21-588): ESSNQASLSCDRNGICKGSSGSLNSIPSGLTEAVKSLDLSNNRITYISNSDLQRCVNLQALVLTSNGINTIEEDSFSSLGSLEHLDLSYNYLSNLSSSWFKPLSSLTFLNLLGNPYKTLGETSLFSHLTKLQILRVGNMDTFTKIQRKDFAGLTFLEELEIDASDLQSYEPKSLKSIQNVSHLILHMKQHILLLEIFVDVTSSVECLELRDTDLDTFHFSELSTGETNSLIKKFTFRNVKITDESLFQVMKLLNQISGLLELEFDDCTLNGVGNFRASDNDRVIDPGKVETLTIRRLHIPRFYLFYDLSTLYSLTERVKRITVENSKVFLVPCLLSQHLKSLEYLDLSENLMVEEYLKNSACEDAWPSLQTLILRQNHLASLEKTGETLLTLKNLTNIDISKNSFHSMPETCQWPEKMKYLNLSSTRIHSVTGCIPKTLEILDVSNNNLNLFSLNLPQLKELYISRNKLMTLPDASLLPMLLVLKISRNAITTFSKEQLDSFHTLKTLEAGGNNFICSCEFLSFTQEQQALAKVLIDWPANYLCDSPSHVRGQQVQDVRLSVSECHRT

Substance: MMP2 (from UniProt P08253)
- Kd: 32.2 nM
